In test [1] the target is T1, 4H2568-bA.
T1 chain: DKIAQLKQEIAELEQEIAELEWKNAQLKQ
The test is described as follows: two-hybrid library CCNG1.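 Further: natural log of median RNA to DNA barcode read ratio; higher means stronger binding.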

For test [2], the target named is T2, 4H470-bA.
T2 chain: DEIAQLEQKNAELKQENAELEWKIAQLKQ
The test is described as follows: two-hybrid library CCNG1.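 Further: natural log of median RNA to DNA barcode read ratio; higher means stronger binding.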

The target in test [3] is T3, 4H344-bA.
T3 chain: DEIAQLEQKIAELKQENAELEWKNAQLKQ
The test is described as follows: two-hybrid library CCNG1.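 Further: natural log of median RNA to DNA barcode read ratio; higher means stronger binding.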

For test [4], the target named is T4, 4H1072-bA.
T4 chain: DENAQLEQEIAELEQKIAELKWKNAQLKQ
In words: two-hybrid library CCNG1.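 Further: natural log of median RNA to DNA barcode read ratio; higher means stronger binding.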

Test [5] addresses T5, 4H3907-bA.
T5 chain: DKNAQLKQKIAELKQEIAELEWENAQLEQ
The test is described as follows: two-hybrid library CCNG1.

The target in test [6] is T6, 4H2745-bA.
T6 chain: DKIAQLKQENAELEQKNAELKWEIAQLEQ
The test is described as follows: two-hybrid library CCNG1.

Test [7] addresses T7, 4H3601-bA.
T7 chain: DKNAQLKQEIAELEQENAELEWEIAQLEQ
In words: two-hybrid library CCNG1.

Test [8] deals with T8, 4H2619-bA.
T8 chain: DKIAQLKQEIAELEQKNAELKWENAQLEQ
In words: two-hybrid library CCNG1.

Test [9] has as its target T9, 4H363-bA.
T9 chain: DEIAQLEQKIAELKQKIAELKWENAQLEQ
The test is described as follows: two-hybrid library CCNG1.

The target in test [10] is T10, 4H1387-bA.
T10 chain: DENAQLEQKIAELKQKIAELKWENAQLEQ
In words: two-hybrid library CCNG1.

Test [11] has as its target T11, 4H3961-bA.
T11 chain: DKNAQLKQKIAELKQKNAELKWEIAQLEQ
In words: two-hybrid library CCNG1.

The target in test [12] is T12, 4H3592-bA.
T12 chain: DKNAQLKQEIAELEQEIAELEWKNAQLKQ
The test is described as follows: two-hybrid library CCNG1.

For test [13], the target named is T13, 4H1193-bA.
T13 chain: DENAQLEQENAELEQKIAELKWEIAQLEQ
The test is described as follows: two-hybrid library CCNG1.

The target of test [14] is T14, 4H1406-bA.
T14 chain: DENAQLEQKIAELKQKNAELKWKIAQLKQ
In words: two-hybrid library CCNG1.

The target in test [15] is T15, 4H4038-bA.
T15 chain: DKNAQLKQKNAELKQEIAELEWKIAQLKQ
The test is described as follows: two-hybrid library CCNG1.

The target in test [16] is T16, 4H687-AA.
T16 chain: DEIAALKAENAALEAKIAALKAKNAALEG
The test is described as follows: two-hybrid library CCmax. As to conditions: mean of both orientations.

Test [17] concerns the target T17, 4H3112-AA.
T17 chain: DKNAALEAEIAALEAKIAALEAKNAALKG
The test is described as follows: two-hybrid library CCmax. The settings on record: mean of both orientations.

For test [18], the target named is T18, 4H3354-AA.
T18 chain: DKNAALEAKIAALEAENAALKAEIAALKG
The test is described as follows: two-hybrid library CCmax. The settings on record: mean of both orientations.

For test [19], the target named is T19, 4H1446-AA.
T19 chain: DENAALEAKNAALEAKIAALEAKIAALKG
In words: two-hybrid library CCmax.

Test [20] concerns the target T20, 4H3427-AA.
T20 chain: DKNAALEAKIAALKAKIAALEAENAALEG
The test is described as follows: two-hybrid library CCmax. The settings on record: mean of both orientations.

Test [21] deals with T21, 4H3855-AA.
T21 chain: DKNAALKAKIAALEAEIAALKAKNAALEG
In words: two-hybrid library CCmax. The settings on record: mean of both orientations.

For test [22], the target named is T22, 4H967-AA.
T22 chain: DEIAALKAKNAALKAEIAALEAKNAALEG
The test is described as follows: two-hybrid library CCmax. As to conditions: mean of both orientations.

In test [23] the target is T23, 4H568-AA.
T23 chain: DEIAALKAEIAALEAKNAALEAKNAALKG
The test is described as follows: two-hybrid library CCmax. As to conditions: mean of both orientations.

Test [24] has as its target T24, 4H717-AA.
T24 chain: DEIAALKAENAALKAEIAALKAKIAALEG
The test is described as follows: two-hybrid library CCmax. As to conditions: mean of both orientations.

The target in test [25] is T25, 4H4001-AA.
T25 chain: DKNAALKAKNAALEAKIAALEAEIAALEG
In words: two-hybrid library CCmax. The settings on record: mean of both orientations.

The target in test [26] is T26, 4H953-AA.
T26 chain: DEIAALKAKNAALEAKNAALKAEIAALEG
The test is described as follows: two-hybrid library CCmax. As to conditions: mean of both orientations.

Test [27] deals with T27, 4H918-AA.
T27 chain: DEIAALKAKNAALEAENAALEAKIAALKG
The test is described as follows: two-hybrid library CCmax. The settings on record: mean of both orientations.

For test [28], the target named is T28, 4H883-AA.
T28 chain: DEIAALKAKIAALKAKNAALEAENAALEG
The test is described as follows: two-hybrid library CCmax. The settings on record: mean of both orientations.

The target in test [29] is T29, 4H1845-AA.
T29 chain: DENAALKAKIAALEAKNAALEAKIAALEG
In words: two-hybrid library CCmax. As to conditions: mean of both orientations.

For test [30], the target named is T30, 4H797-AA.
T30 chain: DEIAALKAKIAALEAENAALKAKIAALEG
The test is described as follows: two-hybrid library CCmax. As to conditions: mean of both orientations.

In test [31] the target is T31, 4H3782-AA.
T31 chain: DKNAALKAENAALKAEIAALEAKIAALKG
The test is described as follows: two-hybrid library CCmax. The settings on record: mean of both orientations.

The target of test [32] is T32, 4H2442-AA.
T32 chain: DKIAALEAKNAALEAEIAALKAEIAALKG
In words: two-hybrid library CCmax. The settings on record: mean of both orientations.

Test [33] has as its target T33, 4H4001-bA.
T33 chain: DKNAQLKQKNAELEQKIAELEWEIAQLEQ
In words: two-hybrid library CCNG1.

The target in test [34] is T34, 4H797-bA.
T34 chain: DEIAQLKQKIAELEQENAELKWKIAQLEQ
In words: two-hybrid library CCNG1.

In test [35] the target is T35, 4H3606-bA.
T35 chain: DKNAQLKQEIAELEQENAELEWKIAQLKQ
The test is described as follows: two-hybrid library CCNG1.

Test [36] addresses T36, 4H968-bN.
T36 chain: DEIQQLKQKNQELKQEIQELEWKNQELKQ
In words: two-hybrid library CCNG1.

The target in test [37] is T37, 4H331-bA.
T37 chain: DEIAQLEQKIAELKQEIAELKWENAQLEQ
The test is described as follows: two-hybrid library CCNG1.

In test [38] the target is T38, 4H967-bA.
T38 chain: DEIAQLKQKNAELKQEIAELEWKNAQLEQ
In words: two-hybrid library CCNG1.

In test [39] the target is T39, 4H462-bA.
T39 chain: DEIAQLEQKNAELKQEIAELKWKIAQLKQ
In words: two-hybrid library CCNG1.

The target in test [40] is T40, 4H1446-bA.
T40 chain: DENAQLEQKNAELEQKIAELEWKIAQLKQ
In words: two-hybrid library CCNG1.

Test [41] deals with T41, 4H1328-bA.
T41 chain: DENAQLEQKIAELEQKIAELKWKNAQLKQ
In words: two-hybrid library CCNG1.

Test [42] has as its target T42, 4H2697-bA.
T42 chain: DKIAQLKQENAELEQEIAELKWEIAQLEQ
The test is described as follows: two-hybrid library CCNG1.

Test [43] deals with T43, 4H2610-bA.
T43 chain: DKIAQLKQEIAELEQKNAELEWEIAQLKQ
In words: two-hybrid library CCNG1.

The target in test [44] is T44, 4H3782-bA.
T44 chain: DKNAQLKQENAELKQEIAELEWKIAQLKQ
In words: two-hybrid library CCNG1.

Test [45] has as its target T45, 4H953-bA.
T45 chain: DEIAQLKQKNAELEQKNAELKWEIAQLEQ
The test is described as follows: two-hybrid library CCNG1.

For test [46], the target named is T46, 4H1369-bA.
T46 chain: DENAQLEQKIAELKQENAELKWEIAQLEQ
The test is described as follows: two-hybrid library CCNG1.

Test [47] has as its target T47, P9A.
T47 chain: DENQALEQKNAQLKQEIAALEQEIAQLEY
In words: two-hybrid library CCNG1.

Test [48] addresses T48, 4H687-bA.
T48 chain: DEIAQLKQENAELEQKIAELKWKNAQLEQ
The test is described as follows: two-hybrid library CCNG1.

The target of test [49] is T49, 4H370-bA.
T49 chain: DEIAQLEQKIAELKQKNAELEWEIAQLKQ
The test is described as follows: two-hybrid library CCNG1.

The target in test [50] is T50, 4H454-bH.
T50 chain: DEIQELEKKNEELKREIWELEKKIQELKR
In words: two-hybrid library CCNG1.

Test [51] deals with T51, 4H568-bA.
T51 chain: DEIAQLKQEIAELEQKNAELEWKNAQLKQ
In words: two-hybrid library CCNG1.

For test [52], the target named is T52, 4H3189-bA.
T52 chain: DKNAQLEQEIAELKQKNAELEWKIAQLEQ
In words: two-hybrid library CCNG1.

The target of test [53] is T53, 4H3843-bA.
T53 chain: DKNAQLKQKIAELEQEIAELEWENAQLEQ
The test is described as follows: two-hybrid library CCNG1.

Test [54] deals with T54, 4H883-bA.
T54 chain: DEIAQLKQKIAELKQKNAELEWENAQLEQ
In words: two-hybrid library CCNG1.

Test [55] has as its target T55, 4H72-bA.
T55 chain: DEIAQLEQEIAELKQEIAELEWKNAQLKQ
The test is described as follows: two-hybrid library CCNG1.

Test [56] addresses T56, 4H2667-bA.
T56 chain: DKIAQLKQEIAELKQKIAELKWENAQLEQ
The test is described as follows: two-hybrid library CCNG1.

The target in test [57] is T57, 4H2576-bA.
T57 chain: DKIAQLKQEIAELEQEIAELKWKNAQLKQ
In words: two-hybrid library CCNG1.

For test [58], the target named is T58, 4H918-bA.
T58 chain: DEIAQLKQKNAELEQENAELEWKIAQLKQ
The test is described as follows: two-hybrid library CCNG1.

The target of test [59] is T59, 4H1845-bA.
T59 chain: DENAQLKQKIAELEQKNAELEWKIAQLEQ
In words: two-hybrid library CCNG1.

Test [60] addresses T60, 4H607-bA.
T60 chain: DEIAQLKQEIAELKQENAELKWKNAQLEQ
The test is described as follows: two-hybrid library CCNG1.

Turning to DENAQLEQEIAELEQKIAELKWKNAQLKQ [4H1072-bA], the interaction score in test [1] was 1.85; in [2] it was -1.2; in [3], -0.759; in test [4] it was 0.969; in [5], 0.997; in test [6], -0.205. Further, the interaction score in [7] turned out to be 0.34; in test [8], 0.0458; in test [9], 1.21; in test [10], 1.46; in test [11], 1.34; in test [12], 1.81. Besides, the interaction score in test [13] was 0.766; in [14] it was 0.239; in test [15], 1.71.

Turning to DENAALEAKNAALEAKIAALEAKIAALKG [4H1446-AA], the interaction score in test [16] is -1.79; in test [17] it was -0.365; in [18], -1.43; in test [19], 0.267; in [20] it was -0.719; in test [21] it was -0.445. Further, the interaction score in test [22] is -1.1; in test [23], -1.7; in test [24] it was -1.15; in test [25] it was 2.23; in [26], -0.751; in test [27], -1.53. Moreover, the interaction score in test [28] is -1.54; in [29] it was -1.25; in [30], -1.49; in test [31] it was 0.114; in test [32], -1.19.

As for DENAQLEQENAELEQKIAELKWEIAQLEQ [4H1193-bA], the interaction score was 0.926 in test [33]; -1.03 in test [34]; -0.984 in [35]; -0.444 in test [5]; 1.16 in test [36]; -1.28 in test [37]. The interaction score is -0.992 in test [7]; -0.577 in test [38]; 0.96 in test [39]; -0.515 in test [40]; -0.132 in test [41]; -0.731 in test [42]. The interaction score in test [43] is -0.547; in [44], 1.7; in test [45] it was -1.01; in test [10] it was -0.852; in test [46], -1.1; in test [47] it was 0.624. The interaction score in test [48] was -0.956; in test [49], -1.27; in test [50], 0.453; in [51], -1.33; in [52], -0.992; in test [53] it was 0.453. Besides, the interaction score in test [54] is -0.805; in test [12], -0.214; in test [55] it was -1.83; in test [56], -0.522; in [57], 1.08; in test [13] it was -1.02. For the same molecule, the interaction score is -0.0377 in test [14]; -1.33 in [58]; 2.35 in [15]; -0.841 in [59]; -0.928 in test [60].

(Values after PMC10397247.)
